Experimental data as given in article doi:10.1101/2025.10.06.680677, “Mechanistic insight into the oligomerisation of Arabidopsis CRY1 and its inhibition by BIC1” (bioRxiv, 2025).
Values belong to the binder of their own block, whether it stands above or below them.

B3: Arabidopsis thaliana CRY1 PHR domain (residues 1-509) (domain or fragment, UniProt Q43125 1-509, looked up)
chain: MSGSVSGCGSGGCSIVWFRRDLRVEDNPALAAAVRAGPVIALFVWAPEEEGHYHPGRVSRWWLKNSLAQLDSSLRSLGTCLITKRSTDSVASLLDVVKSTGASQIFFNHLYDPLSLVRDHRAKDVLTAQGIAVRSFNADLLYEPWEVTDELGRPFSMFAAFWERCLSMPYDPESPLLPPKKIISGDVSKCVADPLVFEDDSEKGSNALLARAWSPGWSNGDKALTTFINGPLLEYSKNRRKADSATTSFLSPHLHFGEVSVRKVFHLVRIKQVAWANEGNEAGEESVNLFLKSIGLREYSRYISFNHPYSHERPLLGHLKFFPWAVDENYFKAWRQGRTGYPLVDAGMRELWATGWLHDRIRVVVSSFFVKVLQLPWRWGMKYFWDTLLDADLESDALGWQYITGTLPDSREFDRIDNPQFEGYKFDPNGEYVRRWLPELSRLPTDWIHHPWNAPESVLQAAGIELGSNYPLPIVGLDEAKARLHEALSQMWQLEAASRAAIENGSEEG
notes: Cryptochrome 1 (CRY1), Arabidopsis thaliana, photolyase homology region (PHR) domain, residues 1-509; Cloned in pACYCDuet-1; Monomer about 59 kDa by LILBID-MS; also called wild-type CRY1; source: E. coli BL21 Star (DE3), purified (Ni-NTA, SEC on Superdex 200)
B4: Arabidopsis thaliana CRY1 PHR domain (residues 1-509) L407F mutant (domain or fragment, UniProt Q43125 1-509, looked up)
chain: MSGSVSGCGSGGCSIVWFRRDLRVEDNPALAAAVRAGPVIALFVWAPEEEGHYHPGRVSRWWLKNSLAQLDSSLRSLGTCLITKRSTDSVASLLDVVKSTGASQIFFNHLYDPLSLVRDHRAKDVLTAQGIAVRSFNADLLYEPWEVTDELGRPFSMFAAFWERCLSMPYDPESPLLPPKKIISGDVSKCVADPLVFEDDSEKGSNALLARAWSPGWSNGDKALTTFINGPLLEYSKNRRKADSATTSFLSPHLHFGEVSVRKVFHLVRIKQVAWANEGNEAGEESVNLFLKSIGLREYSRYISFNHPYSHERPLLGHLKFFPWAVDENYFKAWRQGRTGYPLVDAGMRELWATGWLHDRIRVVVSSFFVKVLQLPWRWGMKYFWDTLLDADLESDALGWQYITGTFPDSREFDRIDNPQFEGYKFDPNGEYVRRWLPELSRLPTDWIHHPWNAPESVLQAAGIELGSNYPLPIVGLDEAKARLHEALSQMWQLEAASRAAIENGSEEG
notes: Cryptochrome 1 (CRY1), Arabidopsis thaliana, PHR domain, residues 1-509, with L407F; Cloned in pACYCDuet-1; also called CRY1^L407F; constitutively active CRY1; source: E. coli BL21 Star (DE3), purified (Ni-NTA, SEC on Superdex 200)

Tests used:
[1] = target: B3; assay: native MS; quantitative LILBID-MS (qLILBID-MS), label-free, in the dark; KD from dissociation plots; conditions: both partners purified
[2] = target: B4; assay: as above; conditions: both partners purified
[3] = target: B3; assay: native MS; quantitative LILBID-MS (qLILBID-MS), label-free, under blue light; KD from dissociation plots; conditions: both partners purified
[4] = target: the molecule itself; assay: not stated; wild-type BIC1, disulfide bond-mediated dimerization (Extended Data Fig. 5a, b); method not given
[5] = target: the molecule itself; assay: native MS; time-resolved nESI-MS, CRY1 15 µM, blue light, room temperature, with 100 µM ATP; reversible two-step model (monomer to dimer, dimer to tetramer)
[6] = target: the molecule itself; assay: native MS; time-resolved nESI-MS, 10 scans per second, CRY1 15 µM, blue light, room temperature, no ATP; reversible two-step model (monomer to dimer, dimer to tetramer) fitted with DynaFit
[7] = target: the molecule itself; assay: native MS; LILBID-MS, under blue light (455 nm LED, 100 µmol m-2 s-1), 20 °C, 200 mM ammonium acetate, 10 mM DTT, pH 7.4; BIC1 equimolar, added before illumination or to pre-illuminated tetrameric CRY1
[8] = target: the molecule itself; assay: SEC; analytical SEC, Superdex 200 10/300 GL, 10 °C, 30 µM protein, ß-mercaptoethanol, kept in darkness (red safe light)

Kd [1]: ~1200 nM
Kd [2]: 100 ± 30 nM
Kd [3]: 130 ± 90 nM
B1: Blue-light Inhibitor of Cryptochromes 1 (BIC1) triple mutant C99A, C105A, C136A (natural protein, Arabidopsis thaliana, UniProt Q9LXJ1 1-140, looked up)
chain: MMNIDDTTSPMAHPIGPSQPPSDQTKQDPPSLPQEAASSVSADKKDLALLEEKPKQSQEEDRVDTGRERLKKHRREIAGRVWIPEIWGQEELLKDWIDASTFDTALVPAGISSARTALVEEARRAASASGGLHNRALILR
notes: BIC1, Arabidopsis thaliana, synthetic gene with three cysteine-to-alanine substitutions; Cloned in pET28a(+) (BioCat GmbH); About 20 kDa by LILBID-MS; also called BIC1^3CA; source: E. coli BL21 Star (DE3), purified (Ni-NTA, SEC on Superdex 75)

B2: Arabidopsis thaliana wild-type BIC1 protein (natural protein, UniProt Q9LXJ1 1-140, looked up)
chain: MMNIDDTTSPMAHPIGPSQPPSDQTKQDPPSLPQEAASSVSADKKDLALLEEKPKQSQEEDRVDTGRERLKKHRREIAGRVWIPEIWGQEELLKDWIDCSTFDTCLVPAGISSARTALVEEARRAASASGGLHNRCLILR
notes: BIC1, Arabidopsis thaliana, wild type with its cysteines; The construct and its host are not described; the methods say in general that recombinant proteins carried an N-terminal His6-tag; The dimer is held by disulfide bonds
stoichiometry N [4]: 2

Binder: B3
fold change of the rate of tetramer formation with 100 µM ATP against no ATP [5]: ~4 fold
fold slowing of dimer dissociation with 100 µM ATP against no ATP [5]: > 10 fold
fold slowing of tetramer dissociation with 100 µM ATP against no ATP [5]: ~2 fold
half-life of tetramer formation (single-exponential fit) [6]: ~18 s
stoichiometry N [7]: 4

Binder: B4
stoichiometry N [8]: 4
